Source: PMC11111636 (EJNMMI Radiopharmacy and Chemistry, 2024)

Experiments:
[1] = Protocol: Distribution coefficient was determined by a shake-flask method. […] The vial was vortexed vigorously and then centrifuged at 10,000 rpm for 10 min for phase separation. Samples (100 μL) of the n-octanol and aqueous phases were taken and measured in the gamma counter. LogD7.4 value was calculated by using the following equation: LogD7.4 = log [(counts in n-octanol phase)/(counts in aqueous phase)]. Measurements were performed in triplicates.
[2] = In vitro stability in PBS (radio-HPLC); assay type: physicochemical; conditions: 37 °C; for PBS (%) intact labeled ligand: n = 1
in vitro = conditions: mouse, mouse serum, Mouse serum (%) intact labeled ligand, 37 °C, n = 1
Protocol: Stability of the radiolabeled peptide was monitored at 1, 4 and 24 h post incubation. The samples in PBS were directly analyzed by radio-HPLC without any pretreatment. However, samples in mouse serum were mixed with an equal volume of acetonitrile to precipitate the proteins. The solution was centrifuged for 10 min at 13,000 rpm and the supernatant was analyzed by radio-HPLC.

U2OS.SSTR2 cells = experiment: Uptake/internalization studies in U2OS.SSTR2 cells; assay type: cell-based, human
Protocol: Cells were seeded in 6-well plates 24 h before the experiment (7 × 10^5 cells/well). […] The membrane-bound fraction was collected by incubating cells with an acid buffer (50 mM glycine, 100 mM NaCl, pH 2.8) for 10 min at rt. The internalized fraction was determined by lysing the cells with 1 M NaOH for 5 min at rt. Both fractions were measured in a gamma counter, and data were analyzed in GraphPad Prism v9 and expressed as percentage of added dose.

[3] = Ex vivo biodistribution in H69-tumor bearing mice; conditions: mouse, in vivo; for tissue uptake at 4 h / tissue uptake at 1 h / tissue uptake at 24 h: n = 4; for tissue uptake at 1 h: 1 h p.i.; for tissue uptake at 24 h: 24 h p.i.
Protocol: (§1) Six-week‐old female Balb/c nu/nu‐specific mice (Janvier Labs, Le Genest‐Saint‐Isle, France) were housed in individually ventilated cages (4 mice/cage). Upon arrival, mice were acclimated for one week, with access to food and water ad libitum. Mice were subcutaneously inoculated on the right shoulder with NCI-H69 cells (5 × 10^6 cells) suspended in 100 μL of 1/3 Matrigel (Corning Inc.; Corning, NY, USA) and 2/3 Hank’s balanced salt solution (Gibco; Paisley, UK). NCI-H69 xenografts were allowed to grow for 2 weeks.
(§2) At 3 selected time points (1, 4 and 24 h; n = 4) p.i., blood was collected via retro-orbital puncture under isoflurane/O2 anesthesia, after which the mice were sacrificed via cervical dislocation. The tumor and organs of interest (heart, lungs, liver, spleen, stomach, large intestine, small intestine, pancreas, kidneys, muscle, skin, bone) were excised, washed in PBS and blotted dry. […] To determine the total injected radioactivity per animal, a calibration curve with indium-111 was established using the gamma counter. The percentage of injected dose per gram (% ID/g) was determined for each tissue and corrected for both the injected activity and % ID present at the injection site (the tail). Then, the tumor and the organs were placed in a petri dish and ex vivo optical imaging was performed with the IVIS Spectrum system (Perkin Elmer, Waltham, MA, USA) using the following settings for all measurements: FOV 19.5 cm, medium binning, f2, 60 s exposure with an excitation/emission filter of 646 nm/662 nm. Living Image version 4.5.2 software (Perkin Elmer) was used to perform data analysis by drawing regions of interest around the organ/tissue to quantify the radiant efficiency {(photons/second/cm^2/steradian)/(μW/cm^2)}.

[4] = tested on: H69-xenograft Balb/c nu/nu mice; experiment: Ex vivo biodistribution in H69-tumor bearing mice; conditions: for Tumor uptake lower than the tumor uptake of [111In]In-DOTA-TATE: P < 0.05
Protocol: as §1, §2

[5] = iv, 2 nmol, Uptake in Intestines

For C[C@@H](O)[C@H](NC(=O)[C@@H]1CSSC[C@H](NC(=O)[C@@H](Cc2ccccc2)NC(=O)CCC(C(=O)O)N2CCN(CC(=O)O)CCN(Cc3cccc(COCCCn4nnc5c4-c4ccccc4N(C(=O)CCCCCNC(=O)CCCCC[N+]4=C(C=CC=CC=C6N(C)c7ccc(S(=O)(=O)[O-])cc7C6(C)C)C(C)(C)c6cc(S(=O)(=O)O)ccc64)Cc4ccccc4-5)n3)CCN(CC(=O)O)CC2)C(=O)N[C@@H](Cc2ccc(O)cc2)C(=O)N[C@H](Cc2c[nH]c3ccccc23)C(=O)N[C@@H](CCCCN)C(=O)N[C@@H]([C@@H](C)O)C(=O)N1)C(=O)O (some centres unmarked) [[^111In]In-eTFC-01, metal not drawn], the LogD7.4 ([1]; n-octanol/PBS pH 7.4, n = 3) was “negative”, the logD ([1]; pH 7.4) was -0.7 ± 0.06 and the “Degradation in PBS buffer” value ([2]; up to 24 h) was “No degradation”. For the same molecule, the “PBS (%) intact labeled ligand” value ([2]; 1 h) was 99.0%, the “PBS (%) intact labeled ligand” value ([2]; 4 h) was 99.0% and the “PBS (%) intact labeled ligand” value ([2]; 24 h) was 99.0%. It also gave a remaining at 1 h (in vitro; 1 h) of 97.9%, a remaining at 4 h (in vitro; 4 h) of 86% and a remaining at 24 h (in vitro; 24 h) of 71%. The “Internalized fraction of radioactivity” value (U2OS.SSTR2 cells; 10^-9 M, 90 min, 37 °C) was 97%, the Total uptake (U2OS.SSTR2 cells; 10^-9 M, 90 min, 37 °C, % of added dose per 1,000,000 cells, n = 3) was 20.87 ± 1.92 % AD and the “Cell uptake with excess of unlabeled DOTA-TATE” value (U2OS.SSTR2 cells; 50-fold excess DOTA-TATE) was “almost completely blocked”. For the same molecule, the “Drop of the cell uptake in presence of an excess of DOTA-TATE” value (U2OS.SSTR2 cells; 50-fold excess DOTA-TATE) was 95%, the tissue uptake ([3]; 2 nmol, Tumor uptake, from 1 h to 24 h post injection) was 2 to 3 %ID/g and the tissue uptake at 4 h ([3]; Uptake in Blood, 4 h block (co-injected 50 nmol DOTA-TATE)) was 4.11 ± 0.16 %ID/g. For the same molecule, the tissue uptake at 4 h ([3]; Uptake in Bones, 4 h block (co-injected 50 nmol DOTA-TATE)) was 1.53 ± 0.27 %ID/g, the tissue uptake at 4 h ([3]; Uptake in Heart, 4 h block (co-injected 50 nmol DOTA-TATE)) was 2.14 ± 0.46 %ID/g and the tissue uptake at 4 h ([3]; Uptake in Intestines, 4 h block (co-injected 50 nmol DOTA-TATE)) was 1.48 ± 0.13 %ID/g. For the same molecule, the tissue uptake at 4 h ([3]; Uptake in Kidneys, 4 h block (co-injected 50 nmol DOTA-TATE)) was 46.6 ± 6.34 %ID/g, the tissue uptake at 4 h ([3]; Uptake in Liver, 4 h block (co-injected 50 nmol DOTA-TATE)) was 10.6 ± 1.55 %ID/g and the tissue uptake at 4 h ([3]; Uptake in Lungs, 4 h block (co-injected 50 nmol DOTA-TATE)) was 6.05 ± 0.59 %ID/g. It also gave a tissue uptake at 4 h ([3]; Uptake in Muscle, 4 h block (co-injected 50 nmol DOTA-TATE)) of 0.67 ± 0.08 %ID/g, a tissue uptake at 4 h ([3]; Uptake in Pancreas, 4 h block (co-injected 50 nmol DOTA-TATE)) of 0.95 ± 0.23 %ID/g and a tissue uptake at 4 h ([3]; Uptake in Skin, 4 h block (co-injected 50 nmol DOTA-TATE)) of 3.61 ± 0.4 %ID/g. It also gave a tissue uptake at 4 h ([3]; Uptake in Spleen, 4 h block (co-injected 50 nmol DOTA-TATE)) of 3.97 ± 0.9 %ID/g, a tissue uptake at 4 h ([3]; Uptake in Stomach, 4 h block (co-injected 50 nmol DOTA-TATE)) of 0.43 ± 0.12 %ID/g and a tissue uptake at 4 h ([3]; Uptake in Tumor, 4 h block (co-injected 50 nmol DOTA-TATE)) of 1.81 ± 0.14 %ID/g. The tissue uptake at 1 h ([3]; iv, 2 nmol, Uptake in Blood) was 6.96 ± 0.68 %ID/g, the tissue uptake at 4 h ([3]; iv, 2 nmol, Uptake in Blood, 4 h p.i.) was 4.7 ± 0.24 %ID/g and the tissue uptake at 24 h ([3]; iv, 2 nmol, Uptake in Blood) was 0.64 ± 0.11 %ID/g. It also gave a tissue uptake at 1 h ([3]; iv, 2 nmol, Uptake in Bones) of 2.29 ± 0.17 %ID/g, a tissue uptake at 4 h ([3]; iv, 2 nmol, Uptake in Bones, 4 h p.i.) of 1.7 ± 0.23 %ID/g and a tissue uptake at 24 h ([3]; iv, 2 nmol, Uptake in Bones) of 0.98 ± 0.21 %ID/g. For the same molecule, the tissue uptake at 1 h ([3]; iv, 2 nmol, Uptake in Heart) was 4.14 ± 0.76 %ID/g, the tissue uptake at 4 h ([3]; iv, 2 nmol, Uptake in Heart, 4 h p.i.) was 2.5 ± 0.17 %ID/g and the tissue uptake at 24 h ([3]; iv, 2 nmol, Uptake in Heart) was 0.74 ± 0.12 %ID/g. It also gave a tissue uptake at 1 h [3, 5] of 1.85 ± 0.24 %ID/g, a tissue uptake at 4 h ([3]; iv, 2 nmol, Uptake in Intestines, 4 h p.i.) of 1.85 ± 0.24 %ID/g and a tissue uptake at 24 h [3, 5] of 0.44 ± 0.09 %ID/g. It also gave a tissue uptake at 1 h ([3]; iv, 2 nmol, Uptake in Kidneys) of 33.2 ± 3.27 %ID/g, a tissue uptake at 4 h ([3]; iv, 2 nmol, Uptake in Kidneys, 4 h p.i.) of 36.6 ± 2.02 %ID/g and a tissue uptake at 24 h ([3]; iv, 2 nmol, Uptake in Kidneys) of 30.6 ± 5.9 %ID/g. It also gave a tissue uptake at 1 h ([3]; iv, 2 nmol, Uptake in Liver) of 8.88 ± 0.9 %ID/g, a tissue uptake at 24 h ([3]; iv, 2 nmol, Uptake in Liver) of 6.03 ± 1.14 %ID/g and a tissue uptake at 1 h ([3]; iv, 2 nmol, Uptake in Lungs) of 8.07 ± 1.18 %ID/g. For the same molecule, the tissue uptake at 4 h ([3]; iv, 2 nmol, Uptake in Lungs, 4 h p.i.) was 7.71 ± 0.87 %ID/g, the tissue uptake at 24 h ([3]; iv, 2 nmol, Uptake in Lungs) was 1.75 ± 0.19 %ID/g and the tissue uptake at 1 h ([3]; iv, 2 nmol, Uptake in Muscle) was 1.07 ± 0.1 %ID/g. For the same molecule, the tissue uptake at 4 h ([3]; iv, 2 nmol, Uptake in Muscle, 4 h p.i.) was 0.73 ± 0.08 %ID/g, the tissue uptake at 24 h ([3]; iv, 2 nmol, Uptake in Muscle) was 0.26 ± 0.05 %ID/g and the tissue uptake at 1 h ([3]; iv, 2 nmol, Uptake in Pancreas) was 1.99 ± 0.26 %ID/g. The tissue uptake at 4 h ([3]; iv, 2 nmol, Uptake in Pancreas, 4 h p.i.) was 1.28 ± 0.17 %ID/g, the tissue uptake at 24 h ([3]; iv, 2 nmol, Uptake in Pancreas) was 0.64 ± 0.18 %ID/g and the tissue uptake at 1 h ([3]; iv, 2 nmol, Uptake in Skin) was 5.73 ± 1.28 %ID/g. It also gave a tissue uptake at 4 h ([3]; iv, 2 nmol, Uptake in Skin, 4 h p.i.) of 3.78 ± 0.35 %ID/g, a tissue uptake at 24 h ([3]; iv, 2 nmol, Uptake in Skin) of 1.54 ± 0.35 %ID/g and a tissue uptake at 1 h ([3]; iv, 2 nmol, Uptake in Spleen) of 5.09 ± 0.72 %ID/g. It also gave a tissue uptake at 4 h ([3]; iv, 2 nmol, Uptake in Spleen, 4 h p.i.) of 3.58 ± 1.02 %ID/g, a tissue uptake at 24 h ([3]; iv, 2 nmol, Uptake in Spleen) of 2.03 ± 0.43 %ID/g and a tissue uptake at 1 h ([3]; iv, 2 nmol, Uptake in Stomach) of 2.66 ± 0.49 %ID/g. It also gave a tissue uptake at 4 h ([3]; iv, 2 nmol, Uptake in Stomach, 4 h p.i.) of 1.41 ± 0.19 %ID/g, a tissue uptake at 24 h ([3]; iv, 2 nmol, Uptake in Stomach) of 0.77 ± 0.22 %ID/g and a tissue uptake at 1 h ([3]; iv, 2 nmol, Uptake in Tumor) of 2.56 ± 0.38 %ID/g. The tissue uptake at 4 h ([3]; iv, 2 nmol, Uptake in Tumor, 4 h p.i.) was 3.04 ± 0.49 %ID/g, the tissue uptake at 24 h ([3]; iv, 2 nmol, Uptake in Tumor) was 2.21 ± 0.31 %ID/g and the “Tumor uptake lower than the tumor uptake of [111In]In-DOTA-TATE” value ([4]; 1 h p.i.) was 54%. The “Tumor uptake reduction by co-injection of an excess of DOTA-TATE” value ([4]; 4 h p.i., compared to the unblocked group) was 40% and the “Tumor uptake lower than the tumor uptake of [111In]In-DOTA-TATE” value ([4]; 24 h p.i.) was 31%.
